Here are results for 1 molecule from paper PMC3820651, “Cyclic Nucleotide Dependent Dephosphorylation of Regulator of G-Protein Signaling 18 in Human Platelets” (PLoS ONE, 2013).

The assay addresses T1, GST-tagged 14-3-3γ (UniProt P61981 1-247).
T1 construct: 14-3-3γ, in the bacterial expression vector pGEX-4T3; Held on glutathione sepharose 4B as bait; also called GST-14-3-3γ; GST-14-3-3
T1 sequence (looked up): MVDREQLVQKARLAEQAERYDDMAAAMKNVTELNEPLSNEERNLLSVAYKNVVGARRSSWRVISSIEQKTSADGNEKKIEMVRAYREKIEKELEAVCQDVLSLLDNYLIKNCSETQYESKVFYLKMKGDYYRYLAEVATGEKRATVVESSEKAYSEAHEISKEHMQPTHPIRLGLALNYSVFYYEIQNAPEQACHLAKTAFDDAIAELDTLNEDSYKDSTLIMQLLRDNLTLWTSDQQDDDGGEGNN
Nature of the assay: pull-down; glutathione sepharose 4B saturated with purified GST-14-3-3γ, incubated with lysates of transfected HEK293T cells; cells without or with 10 µM forskolin (time course or 15 min), RGS18 alone or co-expressed with myc-spinophilin and/or VSV-PP1 catalytic subunit; precipitates blotted with anti-RGS18 or anti-FLAG. To be noted: one partner purified.

B1: FLAG-tagged RGS18 (wild type) (natural protein, human, UniProt Q9NS28 1-235, looked up)
chain: METTLLFFSQINMCESKEKTFFKLIHGSGKEETSKEAKIRAKEKRNRLSLLVQKPEFHEDTRSSRSGHLAKETRVSPEEAVKWGESFDKLLSHRDGLEAFTRFLKTEFSEENIEFWIACEDFKKSKGPQQIHLKAKAIYEKFIQTDAPKEVNLDFHTKEVITNSITQPTLHSFDAAQSRVYQLMEQDSYTRFLKSDIYLDLMEGRPQRPTNLRRRSRSFTCNEFQDVQSDVAIWL
modifications: phosphoserine at S218 present in the basal state; phosphoserine at S49 (s3 band); phosphoserine at S216 after forskolin
notes: Regulator of G-protein signaling 18 (RGS18), 235 amino acids, in pcDNA4/TO; also called wt RGS18; wt-RGS18; source: HEK293T, transfected, in lysate
In the case of B1, the “fold reduction of binding by forskolin against non-treated cells (cells expressing RGS18, spinophilin and PP1)” value was 21 fold; the “fold reduction of binding by forskolin against non-treated cells (cells expressing RGS18 alone)” value is 2.6 fold; the “fold reduction of binding by forskolin against non-treated cells (cells expressing RGS18 and PP1)” value amounted to 25 fold; the “fold reduction of binding by forskolin against non-treated cells (cells expressing RGS18 and spinophilin)” value is 3.7 fold.
